Reference: article PMC9355956, “Structure of human spermine oxidase in complex with a highly selective allosteric inhibitor” (Communications Biology, 2022)
Several values for one entry are separate records, joined by “and”; a condition that tells them apart may be missing. Identical values can stand only once.

Substrate: NCCCNCCCCNCCCN
Experiment: purified protein, by the assay type
Details: other: substrate, 2.5 nM hSMOX; 11.3 °C

B1: hSMOX (Homo sapiens) (protein)
chain: MQSCESSGDSADDPLSRGLRRRGQPRVVVIGAGLAGLAAAKALLEQGFTDVTVLEASSHIGGRVQSVKLGHATFELGATWIHGSHGNPIYHLAEANGLLEETTDGERSVGRISLYSKNGVACYLTNHGRRIPKDVVEEFSDLYNEVYNLTQEFFRHDKPVNAESQNSVGVFTREEVRNRIRNDPDDPEATKRLKLAMIQQYLKVESCESSSHSMDEVSLSAFGEWTEIPGAHHIIPSGFMRVVELLAEGIPAHVIQLGKPVRCIHWDQASARPRGPEIEPRGEGDHNHDTGEGGQGGEEPRGGRWDEDEQWSVVVECEDCELIPADHVIVTVSLGVLKRQYTSFFRPGLPTEKVAAIHRLGIGTTDKIFLEFEEPFWGPECNSLQFVWEDEAESHTLTYPPELWYRKICGFDVLYPPERYGHVLSGWICGEEALVMEKCDDEAVAEICTEMLRQFTGNPNIPKPRRILRSAWGSNPYFRGSYSYTQVGSSGADVEKLAKPLPYTESSKTAPMQVLFSGEATHRKYYSTTHGALLSGQREAARLIEMYRDLFQQGT
  Km: 34 µM and 33.9 ± 2.7 µM
